Laboratory results reported in paper PMC8372624.

Target: fluorescently labeled non-covalent analog of peptide 5 with a non-nucleophilic acetate group on position 133 (UniProt P46937)
Test: fluorescence polarisation

Chain of UniProt P46937 (P46937 whole entry, looked up, tested part not stated): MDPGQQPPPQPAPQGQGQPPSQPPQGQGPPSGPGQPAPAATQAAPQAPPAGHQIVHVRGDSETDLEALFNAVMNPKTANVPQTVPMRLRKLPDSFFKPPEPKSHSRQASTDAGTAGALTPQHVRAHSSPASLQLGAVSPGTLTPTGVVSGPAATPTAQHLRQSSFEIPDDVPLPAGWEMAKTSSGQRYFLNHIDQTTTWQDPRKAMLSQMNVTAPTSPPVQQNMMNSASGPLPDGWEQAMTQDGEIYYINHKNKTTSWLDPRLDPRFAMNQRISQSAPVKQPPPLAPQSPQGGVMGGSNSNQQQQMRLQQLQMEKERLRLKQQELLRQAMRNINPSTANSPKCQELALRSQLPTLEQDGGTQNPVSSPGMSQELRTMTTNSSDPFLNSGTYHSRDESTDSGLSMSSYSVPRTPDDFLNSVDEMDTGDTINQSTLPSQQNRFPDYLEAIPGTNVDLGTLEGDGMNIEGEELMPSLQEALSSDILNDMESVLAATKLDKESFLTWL

B1: recombinant full-length 14-3-3σ (1–248) (natural protein)
chain: MERASLIQKAKLAEQAERYEDMAAFMKGAVEKGEELSCEERNLLSVAYKNVVGGQRAAWRVLSSIEQKSNEEGSEEKGPEVREYREKVETELQGVCDTVLGLLDSHLIKEAGDAESRVFYLKMKGDYYRYLAEVATGDDKKRIIDSARSAYQEAMDISKKEMPPTNPIRLGLALNFSVFHYEIANSPEEAISLAKTTFDEAMADLHTLSEDSYKDSTLIMQLLRDNLTLWTADNAGEEGGEAPQEPQS
  Kd: 106 nM
